The experiment has as its target T1, hTACI-Fc (soluble human TACI-Fc receptor fusion protein) (human, UniProt O14836 1-165).
T1 construct: also called shTACI-Fc; sTACI
T1 sequence: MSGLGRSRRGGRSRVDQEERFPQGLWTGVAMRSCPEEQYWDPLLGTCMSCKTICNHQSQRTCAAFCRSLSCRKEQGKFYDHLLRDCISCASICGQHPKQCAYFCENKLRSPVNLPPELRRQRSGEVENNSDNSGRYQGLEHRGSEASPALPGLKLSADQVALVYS
Briefly: BIAcore 2000; TACI-Fc immobilised on CM5, Flag-APRIL as analyte, 1:1 Langmuir model.

B1: Soluble murine APRIL-Flag protein (FLAG-tagged soluble mouse G70) (ligand)
chain: KHKKKHSVLHLVPVNITSKADSDVTEVMWQPVLRRGRGLEAQGDIVRVWDTGIYLLYSQVLFHDVTFTMGQVVSREGQGRRETLFRCIRSMPSDPDRAYNSCYSAGVFHLHQGDIITVKIPRANAKLSLSPHGTFLGFV
As for B1, the dissociation constant Kd (as a rule, the constant that tells how readily two partners part at equilibrium) was determined as 1.48 nM.

Values taken from US20020086018A1 (published 2002).
